*1 amine or outer side, *2 acyl side, *3 side chain or, on linkers, in order; H or OH if unused. Where no end group is shown, it is not given here. Side-chain parts run from the residue outwards. [ ]: non-standard residue; d: D form. The star is where a group is joined. d(γGlu) = O=C(O)[C@@H](CCC(=O)[*:2])N[*:1]; C18 diacid = O=C(O)CCCCCCCCCCCCCCCCC(=O)*; C16 diacid = O=C(O)CCCCCCCCCCCCCCC(=O)*; γGlu = O=C(O)[C@H](CCC(=O)[*:2])N[*:1]; Glutaryl = O=C(CCCC(=O)[*:2])[*:1]; Nle = CCCC[C@H](N)C(=O)O; AEEA = NCCOCCOCC(=O)O; Aib = CC(C)(N)C(=O)O
T1: human GIP receptor (human, UniProt P48546 22-466)
T1 sequence (looked up): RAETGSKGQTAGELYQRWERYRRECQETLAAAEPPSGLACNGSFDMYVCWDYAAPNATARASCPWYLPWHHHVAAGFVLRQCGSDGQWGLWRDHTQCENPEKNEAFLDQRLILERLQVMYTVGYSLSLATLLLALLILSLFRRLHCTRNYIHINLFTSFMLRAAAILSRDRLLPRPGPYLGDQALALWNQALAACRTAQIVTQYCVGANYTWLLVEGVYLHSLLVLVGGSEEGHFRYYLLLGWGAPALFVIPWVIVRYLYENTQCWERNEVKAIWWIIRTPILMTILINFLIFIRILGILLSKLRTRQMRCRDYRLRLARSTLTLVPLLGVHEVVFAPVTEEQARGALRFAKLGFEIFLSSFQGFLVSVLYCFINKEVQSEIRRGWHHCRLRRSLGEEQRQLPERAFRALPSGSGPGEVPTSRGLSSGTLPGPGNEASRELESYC


Biological target: T1, human GIP receptor
Experiment: cell-based or functional assay

Binder | cAMP agonism % Emax [%] | cAMP antagonism [nM] | cAMP antagonism % inhib [%] | cAMP antagonism pIC50
EGTFISDYSIALDKIKQQDFVNWLLAQKPSSGAPPPS (βGlu at 3; Aib at 13; Nle at 14; K18: C16-diacid; C-term COOH) [AT703] | 0 | 4.3 | 93 | 8.6
[βGlu]GTFISDYSIA[Nle]DKIK(C16 diacid)QQDFVEWLLAQKPSSGAPPPS-OH [AT699] | 0 | 6.31 | 88 | 8.2
[βGlu]GTFISDYSIA[Nle]DKIK([AEEA-AEEA-γGlu-C18 diacid])QQDFVEWLLAQKPSSGAPPPS-OH [AT701] | 13 | 12.6 | 63 | 7.9
EGTFISEYSIA[Nle]EKIK([AEEA-AEEA-γGlu-C18 diacid])QQEFVEWLLAQKPSSGAPPPS-OH (N-terminus assumed; SMILES CCCC[C@H](NC(=O)[C@H](C)NC(=O)[C@@H](NC(=O)[C@H](CO)NC(=O)[C@H](Cc1ccc(O)cc1)NC(=O)[C@H](CCC(=O)O)NC(=O)[C@H](CO)NC(=O)[C@@H](NC(=O)[C@H](Cc1ccccc1)NC(=O)[C@@H](NC(=O)CNC(=O)[C@@H](N)CCC(=O)O)[C@@H](C)O)[C@@H](C)CC)[C@@H](C)CC)C(=O)N[C@@H](CCC(=O)O)C(=O)N[C@@H](CCCCN)C(=O)N[C@H](C(=O)N[C@@H](CCCCNC(=O)COCCOCCNC(=O)COCCOCCNC(=O)CC[C@H](NC(=O)CCCCCCCCCCCCCCCCC(=O)O)C(=O)O)C(=O)N[C@@H](CCC(N)=O)C(=O)N[C@@H](CCC(N)=O)C(=O)N[C@@H](CCC(=O)O)C(=O)N[C@@H](Cc1ccccc1)C(=O)N[C@H](C(=O)N[C@@H](CCC(=O)O)C(=O)N[C@@H](Cc1c[nH]c2ccccc12)C(=O)N[C@@H](CC(C)C)C(=O)N[C@@H](CC(C)C)C(=O)N[C@@H](C)C(=O)N[C@@H](CCC(N)=O)C(=O)N[C@@H](CCCCN)C(=O)N1CCC[C@H]1C(=O)N[C@@H](CO)C(=O)N[C@@H](CO)C(=O)NCC(=O)N[C@@H](C)C(=O)N1CCC[C@H]1C(=O)N1CCC[C@H]1C(=O)N1CCC[C@H]1C(=O)N[C@@H](CO)C(=O)O)C(C)C)[C@@H](C)CC) [AT694] | 4 | 1.47 | 88 | 8.8
[γGlu]GTFISDYSIA[Nle]DKIK(C16 diacid)QQDFVEWLLAQKPSSGAPPPS-OH (N-terminus assumed; SMILES CCCC[C@H](NC(=O)[C@H](C)NC(=O)[C@@H](NC(=O)[C@H](CO)NC(=O)[C@H](Cc1ccc(O)cc1)NC(=O)[C@H](CC(=O)O)NC(=O)[C@H](CO)NC(=O)[C@@H](NC(=O)[C@H](Cc1ccccc1)NC(=O)[C@@H](NC(=O)CNC(=O)CC[C@H](N)C(=O)O)[C@@H](C)O)[C@@H](C)CC)[C@@H](C)CC)C(=O)N[C@@H](CC(=O)O)C(=O)N[C@@H](CCCCN)C(=O)N[C@H](C(=O)N[C@@H](CCCCNC(=O)CCCCCCCCCCCCCCC(=O)O)C(=O)N[C@@H](CCC(N)=O)C(=O)N[C@@H](CCC(N)=O)C(=O)N[C@@H](CC(=O)O)C(=O)N[C@@H](Cc1ccccc1)C(=O)N[C@H](C(=O)N[C@@H](CCC(=O)O)C(=O)N[C@@H](Cc1c[nH]c2ccccc12)C(=O)N[C@@H](CC(C)C)C(=O)N[C@@H](CC(C)C)C(=O)N[C@@H](C)C(=O)N[C@@H](CCC(N)=O)C(=O)N[C@@H](CCCCN)C(=O)N1CCC[C@H]1C(=O)N[C@@H](CO)C(=O)N[C@@H](CO)C(=O)NCC(=O)N[C@@H](C)C(=O)N1CCC[C@H]1C(=O)N1CCC[C@H]1C(=O)N1CCC[C@H]1C(=O)N[C@@H](CO)C(=O)O)C(C)C)[C@@H](C)CC) [AT697] | 8 | 2.82 | 81 | 8.6
[d(γGlu)]GTFISDYSIA[Nle]DKIK(C16 diacid)QQDFVEWLLAQKPSSGAPPPS-OH (N-terminus assumed; SMILES CCCC[C@H](NC(=O)[C@H](C)NC(=O)[C@@H](NC(=O)[C@H](CO)NC(=O)[C@H](Cc1ccc(O)cc1)NC(=O)[C@H](CC(=O)O)NC(=O)[C@H](CO)NC(=O)[C@@H](NC(=O)[C@H](Cc1ccccc1)NC(=O)[C@@H](NC(=O)CNC(=O)CC[C@@H](N)C(=O)O)[C@@H](C)O)[C@@H](C)CC)[C@@H](C)CC)C(=O)N[C@@H](CC(=O)O)C(=O)N[C@@H](CCCCN)C(=O)N[C@H](C(=O)N[C@@H](CCCCNC(=O)CCCCCCCCCCCCCCC(=O)O)C(=O)N[C@@H](CCC(N)=O)C(=O)N[C@@H](CCC(N)=O)C(=O)N[C@@H](CC(=O)O)C(=O)N[C@@H](Cc1ccccc1)C(=O)N[C@H](C(=O)N[C@@H](CCC(=O)O)C(=O)N[C@@H](Cc1c[nH]c2ccccc12)C(=O)N[C@@H](CC(C)C)C(=O)N[C@@H](CC(C)C)C(=O)N[C@@H](C)C(=O)N[C@@H](CCC(N)=O)C(=O)N[C@@H](CCCCN)C(=O)N1CCC[C@H]1C(=O)N[C@@H](CO)C(=O)N[C@@H](CO)C(=O)NCC(=O)N[C@@H](C)C(=O)N1CCC[C@H]1C(=O)N1CCC[C@H]1C(=O)N1CCC[C@H]1C(=O)N[C@@H](CO)C(=O)O)C(C)C)[C@@H](C)CC) [AT698] | 8 | 9.26 | 78 | 8
Glutaryl-GTFISDYSIA[Nle]DKIK([AEEA-AEEA-γGlu-C18 diacid])QQDFVEWLLAQKPSSGAPPPS-OH [AT702] | 0 | 3.55 | 85 | 8.5
EGTFISEYSI[Aib][Nle]EKIK([AEEA-AEEA-γGlu-C18 diacid])QQEFVEWLLAQKPSSGAPPPS-OH (N-terminus assumed; SMILES CCCC[C@H](NC(=O)C(C)(C)NC(=O)[C@@H](NC(=O)[C@H](CO)NC(=O)[C@H](Cc1ccc(O)cc1)NC(=O)[C@H](CCC(=O)O)NC(=O)[C@H](CO)NC(=O)[C@@H](NC(=O)[C@H](Cc1ccccc1)NC(=O)[C@@H](NC(=O)CNC(=O)[C@@H](N)CCC(=O)O)[C@@H](C)O)[C@@H](C)CC)[C@@H](C)CC)C(=O)N[C@@H](CCC(=O)O)C(=O)N[C@@H](CCCCN)C(=O)N[C@H](C(=O)N[C@@H](CCCCNC(=O)COCCOCCNC(=O)COCCOCCNC(=O)CC[C@H](NC(=O)CCCCCCCCCCCCCCCCC(=O)O)C(=O)O)C(=O)N[C@@H](CCC(N)=O)C(=O)N[C@@H](CCC(N)=O)C(=O)N[C@@H](CCC(=O)O)C(=O)N[C@@H](Cc1ccccc1)C(=O)N[C@H](C(=O)N[C@@H](CCC(=O)O)C(=O)N[C@@H](Cc1c[nH]c2ccccc12)C(=O)N[C@@H](CC(C)C)C(=O)N[C@@H](CC(C)C)C(=O)N[C@@H](C)C(=O)N[C@@H](CCC(N)=O)C(=O)N[C@@H](CCCCN)C(=O)N1CCC[C@H]1C(=O)N[C@@H](CO)C(=O)N[C@@H](CO)C(=O)NCC(=O)N[C@@H](C)C(=O)N1CCC[C@H]1C(=O)N1CCC[C@H]1C(=O)N1CCC[C@H]1C(=O)N[C@@H](CO)C(=O)O)C(C)C)[C@@H](C)CC) [AT696] | 0 | 0.584 | 97 | 9.2
Glutaryl-GTFISDYSIA[Nle]DKIK(C16 diacid)QQDFVEWLLAQKPSSGAPPPS-OH [AT700] | 3 | 0.708 | 89 | 9.2
EGTFISEYSI[Aib]LEKIK([AEEA-AEEA-γGlu-C18 diacid])QQEFVEWLLAQKPSSGAPPPS-OH (N-terminus assumed; SMILES CC[C@H](C)[C@H](NC(=O)[C@H](CCCCN)NC(=O)[C@H](CCC(=O)O)NC(=O)[C@H](CC(C)C)NC(=O)C(C)(C)NC(=O)[C@@H](NC(=O)[C@H](CO)NC(=O)[C@H](Cc1ccc(O)cc1)NC(=O)[C@H](CCC(=O)O)NC(=O)[C@H](CO)NC(=O)[C@@H](NC(=O)[C@H](Cc1ccccc1)NC(=O)[C@@H](NC(=O)CNC(=O)[C@@H](N)CCC(=O)O)[C@@H](C)O)[C@@H](C)CC)[C@@H](C)CC)C(=O)N[C@@H](CCCCNC(=O)COCCOCCNC(=O)COCCOCCNC(=O)CC[C@H](NC(=O)CCCCCCCCCCCCCCCCC(=O)O)C(=O)O)C(=O)N[C@@H](CCC(N)=O)C(=O)N[C@@H](CCC(N)=O)C(=O)N[C@@H](CCC(=O)O)C(=O)N[C@@H](Cc1ccccc1)C(=O)N[C@H](C(=O)N[C@@H](CCC(=O)O)C(=O)N[C@@H](Cc1c[nH]c2ccccc12)C(=O)N[C@@H](CC(C)C)C(=O)N[C@@H](CC(C)C)C(=O)N[C@@H](C)C(=O)N[C@@H](CCC(N)=O)C(=O)N[C@@H](CCCCN)C(=O)N1CCC[C@H]1C(=O)N[C@@H](CO)C(=O)N[C@@H](CO)C(=O)NCC(=O)N[C@@H](C)C(=O)N1CCC[C@H]1C(=O)N1CCC[C@H]1C(=O)N1CCC[C@H]1C(=O)N[C@@H](CO)C(=O)O)C(C)C) [AT695] | 0 | 0.794 | 98 | 9.1
